Key:
[1] = target: T1, snFPITE-n1 (snFPITE) (Phascolopsis gouldii, UniProt Z9UHO8WHJ2); assay: inhibition of fibrin lysis or plasminogen activation, SDS-PAGE; type: biochemical; conditions: 2.5 mM, 30 min pre-incubation; purified native snFPITE (called snFPITE-n1); enzyme also purified on Arg-Sepharose 4B
T1 construct: native, purified from S. nudus intestine / intestinal fluid by chromatography
T1 sequence (Z9UHO8WHJ2 1-239): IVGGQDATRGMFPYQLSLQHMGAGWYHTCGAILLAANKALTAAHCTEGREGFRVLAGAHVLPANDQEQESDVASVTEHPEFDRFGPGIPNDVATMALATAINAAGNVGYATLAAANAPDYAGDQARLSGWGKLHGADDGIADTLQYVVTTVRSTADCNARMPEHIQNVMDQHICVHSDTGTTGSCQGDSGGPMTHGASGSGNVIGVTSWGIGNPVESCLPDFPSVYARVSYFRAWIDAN

[2] = target: fibrinogen, biotin-labeled (UniProt P02671); assay: BLI; GatorPrime (GatorPivot in the results), streptavidin (SA-XT) biosensors; biotin-labeled plasminogen or fibrinogen immobilised, snFPITE in solution; 30 °C, 1000 rpm; association 2–3 min, dissociation 2–5 min
fibrinogen, biotin-labeled, sequence (P02671 36-866, chain 1 of 3): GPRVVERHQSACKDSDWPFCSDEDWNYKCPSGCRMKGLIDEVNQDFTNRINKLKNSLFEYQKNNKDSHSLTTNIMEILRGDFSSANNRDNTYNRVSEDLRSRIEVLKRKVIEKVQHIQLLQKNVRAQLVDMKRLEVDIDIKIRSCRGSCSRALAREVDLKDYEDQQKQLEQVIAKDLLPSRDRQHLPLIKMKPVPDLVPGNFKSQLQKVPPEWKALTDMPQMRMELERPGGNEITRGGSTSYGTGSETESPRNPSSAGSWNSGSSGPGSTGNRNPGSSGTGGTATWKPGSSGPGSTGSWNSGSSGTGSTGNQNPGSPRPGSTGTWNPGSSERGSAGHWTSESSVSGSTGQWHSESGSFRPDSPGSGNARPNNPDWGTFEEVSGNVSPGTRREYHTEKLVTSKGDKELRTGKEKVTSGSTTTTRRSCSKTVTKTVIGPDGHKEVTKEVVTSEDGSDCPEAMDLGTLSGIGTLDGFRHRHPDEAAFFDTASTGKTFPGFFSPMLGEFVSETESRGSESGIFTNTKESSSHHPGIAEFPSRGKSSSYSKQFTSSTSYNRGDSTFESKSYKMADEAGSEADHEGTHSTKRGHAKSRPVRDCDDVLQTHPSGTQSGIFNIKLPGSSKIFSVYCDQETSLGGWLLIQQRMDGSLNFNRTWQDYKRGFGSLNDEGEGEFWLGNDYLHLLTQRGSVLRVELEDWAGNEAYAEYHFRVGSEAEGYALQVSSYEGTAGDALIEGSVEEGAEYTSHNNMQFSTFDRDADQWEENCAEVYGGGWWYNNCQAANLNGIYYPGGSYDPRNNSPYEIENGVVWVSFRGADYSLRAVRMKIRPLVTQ
fibrinogen, biotin-labeled, sequence (P02675 45-491, chain 2 of 3, further chain): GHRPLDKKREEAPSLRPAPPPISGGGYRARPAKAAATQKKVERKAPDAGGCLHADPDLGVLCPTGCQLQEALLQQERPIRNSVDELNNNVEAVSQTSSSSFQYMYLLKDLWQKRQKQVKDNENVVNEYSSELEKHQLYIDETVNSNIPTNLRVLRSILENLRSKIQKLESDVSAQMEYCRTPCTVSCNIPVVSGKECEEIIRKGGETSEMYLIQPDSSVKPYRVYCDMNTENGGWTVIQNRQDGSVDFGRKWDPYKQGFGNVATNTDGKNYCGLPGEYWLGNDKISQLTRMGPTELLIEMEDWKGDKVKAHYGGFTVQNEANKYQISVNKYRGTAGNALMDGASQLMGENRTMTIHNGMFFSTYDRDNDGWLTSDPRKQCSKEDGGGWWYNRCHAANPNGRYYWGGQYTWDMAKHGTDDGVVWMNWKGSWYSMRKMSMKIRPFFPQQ
fibrinogen, biotin-labeled, sequence (P02679 27-453, chain 3 of 3, further chain): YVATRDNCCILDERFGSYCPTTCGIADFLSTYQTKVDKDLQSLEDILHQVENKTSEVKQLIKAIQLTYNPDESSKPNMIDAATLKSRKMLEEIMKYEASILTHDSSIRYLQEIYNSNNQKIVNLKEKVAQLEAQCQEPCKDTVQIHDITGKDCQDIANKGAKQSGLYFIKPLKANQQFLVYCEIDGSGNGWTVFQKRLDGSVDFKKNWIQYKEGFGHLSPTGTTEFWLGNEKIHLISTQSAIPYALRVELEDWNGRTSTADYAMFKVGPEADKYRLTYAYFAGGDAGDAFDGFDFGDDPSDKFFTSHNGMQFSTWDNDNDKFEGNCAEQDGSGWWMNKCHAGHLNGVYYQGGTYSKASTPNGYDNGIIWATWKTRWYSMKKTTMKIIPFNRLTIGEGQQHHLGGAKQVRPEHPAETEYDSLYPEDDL

[3] = target: plasminogen, biotin-labeled (human); assay: as above

N=C(N)NCCC[C@H](N)C(=O)O [arginine]
inhibition of fibrin lysis or plasminogen activation, SDS-PAGE [1]: Lys or Arg inhibited snFPITE-n1

small facultative plasminogen-independent thrombolytic enzyme (snFPITE) from Sipunculus nudus
Kd [2]: 0.000133 µM
Kd [3]: 0.0547 µM

Source: article PMC12022309, “A facultative plasminogen-independent thrombolytic enzyme from Sipunculus nudus” (Nature Communications, 2025)
